# ± gives the standard error. This sample holds only a part of the variants without activity.
# B1: glmS ribozyme (parent)
# chain: AUAAAAGCGCCAGAACUACAGAAAUGUAGUUGACGAGGAGGAGGUUUAUCGAAUUUUCGGCGGAUGCCUCCAAA
# Variants of: B1
# Test: self-cleavage kobs at 2500 uM GlcN6P; higher = faster cleavage; RNA array
# Conditions: with glucosamine-6-phosphate
# Summary of the method: (§1)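 Barcoded glmS ribozyme variants on sequenced MiSeq chips were transcribed in situ by E. coli RNA polymerase and tracked through a hybridised Cy3 probe at 37 °C. Glucosamine-6-phosphate (40 μM to 10 mM) in HEPES/KCl/Mg(OAc)2 buffer was flowed in, and tiles were imaged over ~14 h. Signals were normalised to baseline and to non-cleaving reference variants; per-tile medians were fit to one- or two-exponential decays to give kobs. kcat and KM came from weighted Michaelis–Menten fits across concentrations.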
row,Variant,self-cleavage kobs at 2500 uM GlcN6P
1,AUAAAAGCGCUAGAACUACAGAAAUGUAGUUCACGAGGAGGAGGUUUAUGGAAUUUUCGGGGGAUGCCUCCAAA,0.000267 ± 7.4e-05 s⁻¹
2,AUAAAAGCGCCAGAACUACAGAAAUGUAGUUGACGAGGAGAUGGUUUAUCGAAUUUUCGGCAGAUGCCUCCAAA,< 1e-05 s⁻¹
3,AUAAAAGCGCCAGAACUACAGAAAUGUAGUUGACGAAGACGGGGUUUAUCGAAUUUUCGGCGGAUGCCUCCAAA,0.000126 ± 4.4e-05 s⁻¹
4,AUAAAAGAGCCAGAACUACAGAAAUGUAGUUGACGGGGAGGAGGUUUAUCGAGUUUUCGGCGGAUGCCUCCAAA,< 1e-05 s⁻¹
5,AUAAAAGCGCCAGAACUACAGAAAUGUAGUUGACGAGGAGGAGGUUUUUCGAAUUAUCGGCGGAUGCCUCCAAA,9.99e-05 ± 3.4e-05 s⁻¹
6,AUAAAAGCGCCAGAACUACAGAAAUGUAGUUGACGAAGAGAAGGUUUGUCGAAUUUUCGGCGGAUGCCUCCAAA,< 1e-05 s⁻¹
7,AUAAAAGCGCCAGAACUACAGAAAUGUAGUUGACGAGGAGGAGGUUUGUGGUAUUUUCGGCGGAUGCCUCCAAA,< 1e-05 s⁻¹
8,AUAAAAGCGCCAGAACUACAGAAAUGUAGUUGACGAGGAGCAGGUUUCUCGAAUUUUCGGCGGGUGCCUCCAAA,< 1e-05 s⁻¹
9,AUAAAAGCGCCAGAACUACAGAAAUGUAGUUGACGAGGAGGAGGUUACUCUAAUUUUCGGCGGAUGCCUCCAAA,< 1e-05 s⁻¹
10,AUAAAAGCGACAGAACUACAGAAAUGUAGUUGACGAGGAAGAGGUUCGUCGAAUUUUCGGCGGAUGCCUUCAAA,< 1e-05 s⁻¹
11,AUAAAAGCGCUAGAACUACAGAAAUGUAGUUGACGAGGAGGAGGUUUAUCGAAUUAUCGGCGGAUGCCUGCAAA,0.000145 ± 3e-05 s⁻¹
12,AUAAAAUCGCCAGAACUACAGAAAUGUAGUUGACGAGGAGGAGGUUUAACGAAUUUUCGGCGGAGGCCUCCAAA,< 1e-05 s⁻¹
13,AUAAAAACGCCCGAUCUACAGAAAUGUAGUUGACGAGGAGUAGGUUUAUCGAAUUUUCGGCGGAUGCCUCCAAA,< 1e-05 s⁻¹
14,AUAAAUGCGCCAGAACUACAGAAAUGUAGUUGACGUCGAGGAGGUUUUUCGAAUUUUCGGCGGAUGCCUCCAAA,< 1e-05 s⁻¹
15,AUAAAAGCGCCAGAACUACAGAAAUGUAGUUGACGAGGAGGAGGAUGAUCUAAUUUUCGGCGGGGGCCUCCAAA,< 1e-05 s⁻¹
16,AUAAAAGCGCCAGAACUACAGAAAUGUAGUUAACGAGGAGGAGGGUUAUCCAAUUUUCGGCGGAUGCCUCCAAA,< 1e-05 s⁻¹

row,Variant,self-cleavage kobs at 2500 uM GlcN6P
1,AUAAAAGCGCCAGAACUACAGAAAUGUAGUUAACGAGGAGGAGGUUUAUCGAAUUUUCGGCGGAUGCCGGUAAA,0.00186 ± 0.00064 s⁻¹
2,AUAAAUGCGCCAGAAGUACAGAAAUGUAGUUGACGAGGAGGAGGUUUAUCGAAUUUUCGGCGGAUGCCUCGAAA,0.000356 ± 0.00014 s⁻¹
3,AUAAAAGCGCCAGGACUACAGAAAUGUAGUUGACGGGGAGGAGGUUUAUCGAAUUUUGGGCGGAUGCCUCCAAA,< 1e-05 s⁻¹
4,AUAAAAGCGCCAGAACUACAGAAAUGUAGUUGUCAAGGAGGAGGGUUAUGGAAUUUUCGGCGGAUGCCUACAAA,< 1e-05 s⁻¹
5,AUAAAAGCGCAAGAACUACAGAAAUGUAGUUGACGAGGAGGAGGAUUAUCGAAUUAUCGGCGGAUGCCUCCAAA,9.98e-05 ± 2.9e-05 s⁻¹
6,AUAAAAGCGCCAGAACUACAGAAAUGUAGUUGACGCGGAGGAGGUUGAUCGGAUUUUCGCCGGAUGCCUCCAAA,< 1e-05 s⁻¹
7,AUAAACCCGUCAGAACUACAGAAAUGUACUUGACGAGGAGGAGGUUUAUCGAAUUUUGGGCGGAUGCCUCCAAA,< 1e-05 s⁻¹
8,AUAAAAGCGCCCGAUCUACAGAAAUGUAGUUGACGAGGAGAAGGUUUAUCGACUUUUUGGCGGAAGCCUCCAAA,< 1e-05 s⁻¹
9,AUAAAAGCGCCAGAGCUACAGAAAUGUAGUUGAAGACGAGGAGGUUUAUCGAAUUUUCGGCGGAUGCCUCCAAA,< 1e-05 s⁻¹
10,AUAAAAGCGCCAGAACUACAGAAAUGUAGUUGACGACGAGCAGGUUCAUCGAAUUUUCUGCGGAUGCCUCCAAA,< 1e-05 s⁻¹
11,AUAAAAGCGCCAGAACUACAGAAAUGUAGUUGACGAGGAGGAGAUUUAUCGAAUUUUCGGCGGAUUGCUCCAAA,0.00142 ± 0.00035 s⁻¹
12,AUAAAAGCGCCAGACCUACAGAAAUGUAGACGACGAGGAGGAGGUUUAUCGAAUUUUCGGCGGAUGCCUCGAAA,0.000148 ± 5.9e-05 s⁻¹
13,AUAAAAGCGCCCUAACUACAGAAAUGUAGCUGACGAGGAGGAGGUUUAUCGAAUUUUCGACGGAUACCUCCAAA,< 1e-05 s⁻¹
14,AUAAAUGCGCCAGAACUACAGAAAUGUAGUUGACGAGGAGGAGGUUUAUCGGAUUUUCGGCGGAUGGCUCCAAA,0.000425 ± 0.00018 s⁻¹
15,AUAAAAGCCCCGGAACUACAGAAAUGUAGUUGACGAGGAGGAGGUUUAUCGAAUUUUGGGCGGAUGCCUCCAAA,< 1e-05 s⁻¹
16,AUAAAAGCGCCAGAACUACAGAAAUGUAGUUGAGCAGGAGGAGGUUUAUCCAAUUUGUGGCGGAUGCCUCCAAA,< 1e-05 s⁻¹

# Variants of: B1
# Test: self-cleavage kobs at 640 uM GlcN6P; higher = faster cleavage; RNA array
# Conditions: with glucosamine-6-phosphate
# Summary of the method: as §1
row,Variant,self-cleavage kobs at 640 uM GlcN6P
1,AUAAAAGCGCCAGAACUACAGAAAUGUAGUUGACGAAGAGAAGGUUUGUCGAAUUUUCGGCGGAUGCCUCCAAA,< 1e-05 s⁻¹
2,AUAAAAGCGCUAGAACUACAGAAAUGUAGUUGACGAGGAGGAGGUUUAUCGAAUUAUCGGCGGAUGCCUGCAAA,0.000217 ± 5.8e-05 s⁻¹
3,AUAAAAGCGCCAGAACUACAGAAAUGUAGUUGACGAGGAGGAGGUUUAACGAAUCUUCGGCGGAUGCCUCGAAA,< 1e-05 s⁻¹
4,AUAAAAGCGCCAGAAAUACAGAAAUGUAGUCGGAGAGGAGGAGGUUUAUCGUAUUUUCGGCGGAUGCUUCCAAA,< 1e-05 s⁻¹
5,AUAAAUGCGCCAAAACUACAGAAAUGUAGUUGACGAGGAGGAGGUUUAUCGAAUUUUCGGCGGAUGCCUCAAAA,< 1e-05 s⁻¹
